These results are taken from US20250376535A1 (BEIJING STARMAB BIOMED TECHNOLOGY, published 2025).

The target of test [1] is T1, recombinant human OX40-Fc (human, UniProt P43489 29-214).
T1 construct: also called rh-OX40-Fc; human OX40 hFC (R & D systems)
T1 sequence: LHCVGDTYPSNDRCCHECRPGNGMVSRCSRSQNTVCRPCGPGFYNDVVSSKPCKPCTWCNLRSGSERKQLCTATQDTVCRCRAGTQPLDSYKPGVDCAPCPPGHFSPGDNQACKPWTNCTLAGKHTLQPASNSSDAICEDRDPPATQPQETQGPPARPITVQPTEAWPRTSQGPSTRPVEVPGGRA
The test can be described thus: ELISA, OX40-Fc coated, VHH at 1000 nM. In general terms: An ELISA detects its analyte on a solid surface through an enzyme-linked reagent.
Method: (§1) After four times washing with PBST, the plate was incubated with detecting antibody anti-his-HRP (1:4000 dilution) 100 μl per well for one hour with shaking at 60 rpm. The plate was developed with 100 μL of TMB per well in the dark and then stopped by 50 μL of stop solution per well. […] Data was analyzed using GraphPad Prisma 9.1.

Test [2] concerns the target T1, recombinant human OX40-Fc. The test can be described thus: ELISA, OX40-Fc coated, VHH at 0.0128 nM.
Method: as §1
For test [3], the target named is T1, recombinant human OX40-Fc. As to the kind of experiment: ELISA, OX40-Fc coated, VHH at 0.064 nM.
Method: as §1
Test [4] deals with T1, recombinant human OX40-Fc. As to the kind of experiment: ELISA, OX40-Fc coated, VHH at 40 nM.
Method: as §1
The target of test [5] is T1, recombinant human OX40-Fc. The test can be described thus: ELISA, OX40-Fc coated, VHH at 8 nM.
Method: as §1
For test [6], the target named is T1, recombinant human OX40-Fc. As to the kind of experiment: BLI, VHH-His on anti-His tips, OX40 hFc in solution.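 Also: kinetics recorded at 30 °C in PBS pH 7.2, with 200 s of association followed by dissociation monitored in PBS lacking the OX40 protein.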
Method: Bio-Layer Interferometry (BLI) kinetic binding analysis. […] Affinity measurements were performed with Gator equipped with Anti-Penta-His capture (HIS1K) biosensor tips. The assay was performed at 30° C. in 1×PBS buffer (Gibco®, PBS pH7.2). Samples were agitated at 1000 rpm. Prior to analysis, sensors were humidified for 15 min. Purified anti-OX40 VHH was tested for its binding capacity with HIS1K sensor tips. Tips were loaded using 20 μg/ml of anti-OX40 VHH. Loading proceeded for 300 s resulting in capture levels of between 1.8 and 2 nm. […] Association was initiated and monitored for 200 sec, after which tips were transferred to 1×PBS buffer without Factor protein (Gibco, PBS pH 7.2), in order to monitor dissociation. Sensor data was collected throughout the experiments, processed, and analyzed using the Gator data analysis software.
The target in test [7] is T1, recombinant human OX40-Fc. The test can be described thus: ELISA, OX40-Fc coated, VHH at 0.32 nM.
Method: as §1
Test [8] deals with T1, recombinant human OX40-Fc. The test can be described thus: ELISA, OX40-Fc coated, VHH at 1.6 nM.
Method: as §1
Test [9] deals with T1, recombinant human OX40-Fc. The test can be described thus: ELISA, OX40-Fc coated, VHH at 200 nM.
Method: as §1
For test [10], the target named is T2, EGFR Fc (human, UniProt P00533 25-645).
T2 construct: also called EGFR-hFc; recombinant human EGFR-Fc
As to the kind of experiment: ELISA, EGFR Fc coated, VHH at 10 nM.
Method: (§2) After four rounds of washing with PBST, the plate was incubated with detecting antibody anti-his-HRP (1:4000 dilution) 100 μl per well for one hour with shaking at 60 rpm. The plate was developed with 100 μL of TMB per well in the dark and then stopped by 50 μL of stop solution per well. […] Data was analyzed using GraphPad Prisma 9.1.

In test [11] the target is T2, EGFR Fc. As to the kind of experiment: ELISA, EGFR Fc coated, VHH at 500 nM.
Method: as §2
Test [12] deals with T2, EGFR Fc. The test can be described thus: ELISA, EGFR Fc coated, VHH at 2 nM.
Method: as §2
Test [13] addresses T2, EGFR Fc. The test can be described thus: ELISA, EGFR Fc coated, VHH at 0.08 nM.
Method: as §2
Test [14] concerns the target T2, EGFR Fc. The test can be described thus: ELISA, EGFR Fc coated, VHH at 0.4 nM.
Method: as §2
Test [15] addresses T2, EGFR Fc. As to the kind of experiment: ELISA, EGFR Fc coated, VHH at 0.016 nM.
Method: as §2
The target in test [16] is T2, EGFR Fc. As to the kind of experiment: ELISA, EGFR Fc coated.
Method: as §2
Test [17] addresses T2, EGFR Fc. As to the kind of experiment: ELISA, EGFR Fc coated, VHH at 0.0032 nM.
Method: as §2
In test [18] the target is T2, EGFR Fc. The test can be described thus: ELISA, EGFR Fc coated, VHH at 50 nM.
Method: as §2

B1: pgXX88-2 (VHH, not shown: small tags and cut ends)
VHH: EVQLVESGGGLVQPGGSLRLSCAASGFAFGDIPMMWVRQAPGKGREWVSSISADSATQSYADSVQDRFTISRDNAKNTLYLEMHILKPEDTAVYYCATTDRPPPGQGTQVTVSS
Take B1: the OD450 in [1] was 1.67; in test [2], 0.077; in test [3] it was 0.183; in test [4] it was 1.63; in [5], 1.63; in [7], 0.719. Also, the results for the OD450 in test [8] and in [9] were 1.46 and 1.66, respectively. Besides, the Kd (in general, the equilibrium constant for the complex coming apart) in [6] turned out to be 0.485 nM. Moreover, the koff (commonly a measure of how fast the partners let go of each other) in test [6] came to 0.00023 s⁻¹. Moreover, in test [6], the kon (commonly a measure of how fast the partners come together) was determined as 474000 M⁻¹ s⁻¹.

B2: pgXX88-83 (VHH, not shown: small tags and cut ends)
VHH: EVQLVESGGGLVQTGDSLRLSCAALGGTPSTYAIGWFRQAAGKELQFVARITWNGDTWYADALPGRVAISRDNAKKTVYLQMNNLKPEDTAEYICAADVSEFRDIPNRDSRANYRYWGQGTQVTVSS
For B2, the OD450 in [1] was 0.504; in test [2], 0.05; in [3] it was 0.063; in test [4] it was 0.252; in test [5], 0.183; in test [7], 0.072. The results for the OD450 in [8] and in test [9] were 0.147 and 0.243, respectively. In addition, the Kd in test [6] was determined as 0.0526 nM. The koff in test [6] stood at 2.42e-05 s⁻¹. Moreover, the kon in [6] stood at 460000 M⁻¹ s⁻¹.

B3: pgEG-SX55 (VHH, not shown: small tags and cut ends)
VHH: QVQLVESGGGLVQPGGSLRLSCAGTGLIFTTYVMGWYRQAPGKQRELVAIVTNGGGTHYADFVKGRFTISRDNAKNTVSLQMNLLKPEDTAVYYCNARHLVRPGTNDYWGQGTLVTVSS
As for B3, the OD450 is 2.42 in test [10]; 2.24 in test [11]; 2.22 in [12]; 0.5 in test [13]; 1.61 in test [14]; 0.193 in test [15]. In addition, the figures for the OD450 in [17] and in test [18] were 0.125 and 2.2, respectively. Moreover, in [16], the response was half-maximal at 0.237 nM (EC50).

B4: pgXX88-60 (VHH, not shown: small tags and cut ends)
VHH: EVQLVESGGGLAQPGGSLRLSCAASGFTFSNYAMGWYRQAPGKEREFVAAIDWSTNALLYGDSVKGRFTISRDNAKNTVFLQMSGLKPEDTALYYCAADRAYHTVVLGPPEGMDYWGKGTQVTVSS
For the molecule B4, the OD450 in test [1] was 0.713; in test [2], 0.057; in test [3] it was 0.284; in test [4], 0.718; in test [5], 0.668; in test [7], 0.596. For the same molecule, the OD450 turned out to be 0.641 in test [8] and 0.61 in test [9]. The Kd in test [6] is under 0.001 nM. For the same molecule, in [6], the koff amounted to 1e-06 s⁻¹. For the same molecule, the kon in [6] was determined as 464000 M⁻¹ s⁻¹.

B5: pgEG-SX52 (VHH, not shown: small tags and cut ends)
VHH: QVQLVESGGGLVKAGKSLRLSCAASVSSFDTYTMGWYRQAPGKQREQVAIITPGAGTHYADSVKGRFTISRDNAKNTVYLQMSSLKLEDTAVYYCKARHRITGYDYWGQGTQVTVSS
B5: the OD450 in test [10] came to 2.44; in test [11], 2.23; in test [12] it was 2.34; in test [13], 1.07; in test [14] it was 2; in test [15], 0.32. Also, the OD450 came to 0.196 in test [17] and 2.33 in [18]. It took 0.105 nM to reach a half-maximal effect in [16] (EC50).

B6: pgEG-SX9 (VHH, not shown: small tags and cut ends)
VHH: QVQLVESGGGLVQAGGSLRLSCAASVSGSALSNMAWYRQRPGNQRELVAHITFDNFTNYADSVKGRFTISRDNVKNTVDLQMSSLKPEDTAVYYCNARHFFGDNYWGKGTLVTVSS
With B6, the OD450 in test [10] was determined as 2.4; in test [11] it was 2.2; in test [12] it was 2.64; in test [13], 1.84; in test [14], 2.4; in test [15], 0.903. In addition, the OD450 came out at 0.237 in [17] and 2.28 in [18]. Further, in test [16], the EC50 (usually the midpoint of the concentration-response curve) is 0.0278 nM.

B7: pgXX88-84 (VHH, not shown: small tags and cut ends)
VHH: EVQLVESGGRLVQAGDSLKLSCTASGRTFSDYVMGWFRQVPGEGRLMVAVITPAGDTTEYADAVKGRFSISKDSAKRTVNLQMNNLKVDDTAVYYCAAGPSWIGMQFGTAEYWGQGTQVTVSS
For the molecule B7, the OD450 in test [1] is 0.34; in test [2], 0.057; in test [3], 0.085; in test [4], 0.324; in test [5], 0.31; in [7], 0.175. The OD450 was 0.29 in [8] and 0.296 in [9]. In addition, in test [6], the Kd was under 0.001 nM. For the same molecule, in [6], the koff turned out to be 1e-06 s⁻¹. Besides, the kon in test [6] was determined as 494000 M⁻¹ s⁻¹.

B8: pgXX88-81 (VHH, not shown: small tags and cut ends)
VHH: EVQLVESGGGLAQPGSSLRLSCTASGTVFSILSATWFRQAPGKAHEARELVAFISSDGVSMHADSVKGRFTISRDNAKSTVYLQMDNLQPEDTAAYYCKLSNSMMGMEYWGRGTQVTVSS
Turning to B8, the OD450 stood at 0.772 in test [1]; 0.06 in test [2]; 0.262 in test [3]; 0.75 in test [4]; 0.772 in test [5]; 0.617 in test [7]. For the same molecule, the OD450 in [8] stood at 0.743; in [9], 0.666. The Kd in test [6] is under 0.001 nM. In test [6], the koff is 1e-06 s⁻¹. Further, in [6], the kon was found to be 549000 M⁻¹ s⁻¹.

B9: pgEG-SX39 (VHH, not shown: small tags and cut ends)
VHH: QVQVAESGGGLVQAGESLRLSCTASGSISTINAVRWYRQTPGKQREFVAYISTDGGTDYADPVKGRFTISRDNAKNTWFLQMNSLKPEDTGVYMCNVVVTPYAYWGQGTQVTVSS
B9: the OD450 was determined as 0.093 in test [10]; 0.503 in [11]; 0.073 in test [12]; 0.068 in test [13]; 0.067 in [14]; 0.072 in test [15]. In addition, the OD450 in test [17] amounted to 0.075; in test [18], 0.147. In addition, it took 2760 nM to reach a half-maximal effect in test [16] (EC50).

B10: pgEG-SX56 (VHH, not shown: small tags and cut ends)
VHH: QVQLVESGGGFVQAGGSLRLSCAASGRFLSIADMDWYRRVPGKQRELVASITRAGDTALEDSVKGRFTISRDNAKNTVHLQMNSVKPEDTAVYYCRADVTRSGTPYFEVWGQGTLVTVSS
In the case of B10, the OD450 in test [10] turned out to be 1.54; in test [11], 1.5; in test [12], 1.46; in test [13], 1.15; in test [14], 1.32; in [15], 0.569. For the same molecule, the OD450 turned out to be 0.409 in test [17] and 1.47 in [18]. The molecule further came in with an EC50 in [16] of 0.044 nM.

B11: pgEG-SX20 (VHH, not shown: small tags and cut ends)
VHH: QVQLVESGGGLVQAGGSLRLSCAGARSAFSIKPMTWYRQAPGKERELVAYFNSGGSTNYADSVKGRFTISRDNAKNTMYLQMNNLKPEDTAVYYCNAIPPLGSWGQGTQVTVSS
Take B11: the OD450 in [10] was 2.6; in test [11], 2.53; in [12], 2.61; in test [13], 1.95; in [14], 2.67; in test [15], 1.13. Also, the results for the OD450 in test [17] and in test [18] were 0.358 and 2.67, respectively. The molecule further displayed an EC50 in test [16] of 0.025 nM.
